Positions count from the first letter of the chain named.
T1: mouse CD47-Fc (mouse, UniProt Q61735 19-140, limits assumed)
T1 construct: not shown: Fc part
T1 sequence (looked up): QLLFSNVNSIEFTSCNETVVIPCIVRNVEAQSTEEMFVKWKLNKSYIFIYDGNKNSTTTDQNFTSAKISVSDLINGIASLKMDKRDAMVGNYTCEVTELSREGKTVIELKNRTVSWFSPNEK

B1: ADI-26624 in IgG1 format produced in yeast cells (antibody)
heavy: not shown
light: DIQMTQSPSSVSASVGDRVTITCRASQGISRWLAWYQQKPGKAPKLLIYAASSLQSGVPSRFSGSGSGTDFTLTISSLQPEDFATYYCQQADLHPPLTFGGGTKVEIKRTVAAPSVFIFPPSDEQLKSGTASVVCLLNNFYPREAKVQWKVDNALQSGNSQESVTEQDSKDSTYSLSSTLTLSKADYEKHKVYACEVTHQGLSSPVTKSFNRGEC
notes: also called ADI26624-IgG1
B2: ADI-29336 in IgG1 format produced in yeast cells (antibody)
heavy: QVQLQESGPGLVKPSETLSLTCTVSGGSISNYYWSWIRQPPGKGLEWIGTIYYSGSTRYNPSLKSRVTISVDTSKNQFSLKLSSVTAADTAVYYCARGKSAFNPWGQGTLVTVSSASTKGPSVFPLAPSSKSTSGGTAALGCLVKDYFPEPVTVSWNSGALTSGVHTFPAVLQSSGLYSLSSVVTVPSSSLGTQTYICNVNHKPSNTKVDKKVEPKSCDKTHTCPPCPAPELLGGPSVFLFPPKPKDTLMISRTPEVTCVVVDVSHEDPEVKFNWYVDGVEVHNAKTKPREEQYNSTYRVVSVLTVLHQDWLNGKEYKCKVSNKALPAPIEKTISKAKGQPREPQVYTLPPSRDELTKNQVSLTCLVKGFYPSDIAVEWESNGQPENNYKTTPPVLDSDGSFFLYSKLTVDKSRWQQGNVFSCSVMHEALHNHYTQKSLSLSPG
light: B1 light
notes: also called ADI29336-IgG1
B3: ADI-30794 in IgG1 format produced in yeast cells (antibody, V domains shown)
VH: EVQLLESGGGLVQPGGSLRLSCAASGFTFGNYAMSWVRQAPGKGLEWVSAISGSGGKTYYADSVKGRFTISRDNSKNTLYLQMNSLRAEDTAVYYCAKTAIYYGFDLWGRGTLVTVSS
VL: DIQLTQSPSSVSASVGDRVTITCRASQGISSWLAWYQQKPGKAPKLLIYGASSLQSGVPSRFSGSGSGTDFTLTISSLQPEDFATYYCQQKNPFPPFFGGGTKVEIKR
notes: also called ADI 30794-IgG1
B4: ADI-26591 in IgG1 format, expressed in yeast (antibody, V domains shown)
VH: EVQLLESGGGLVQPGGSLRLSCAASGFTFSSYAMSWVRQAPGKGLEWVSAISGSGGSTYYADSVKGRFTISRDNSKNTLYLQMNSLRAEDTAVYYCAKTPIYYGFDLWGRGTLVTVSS
VL: B3 VL with F97T
notes: also called ADI 26591-IgG1
B5: ADI-29341 in IgG1 format produced in yeast cells (antibody)
heavy: not shown
light: DIQMTQSPSSVSASVGDRVTITCRASQGISRWLAWYQQKPGKAPKLLIYAASSLQSGVPSRFSGSGSGTDFTLTISSLQPEDFATYYCQQTVSFPITFGGGTKVEIKRTVAAPSVFIFPPSDEQLKSGTASVVCLLNNFYPREAKVQWKVDNALQSGNSQESVTEQDSKDSTYSLSSTLTLSKADYEKHKVYACEVTHQGLSSPVTKSFNRGEC
notes: also called ADI29341-IgG1
B6: ADI-29371 in IgG1 format produced in yeast cells (antibody)
heavy: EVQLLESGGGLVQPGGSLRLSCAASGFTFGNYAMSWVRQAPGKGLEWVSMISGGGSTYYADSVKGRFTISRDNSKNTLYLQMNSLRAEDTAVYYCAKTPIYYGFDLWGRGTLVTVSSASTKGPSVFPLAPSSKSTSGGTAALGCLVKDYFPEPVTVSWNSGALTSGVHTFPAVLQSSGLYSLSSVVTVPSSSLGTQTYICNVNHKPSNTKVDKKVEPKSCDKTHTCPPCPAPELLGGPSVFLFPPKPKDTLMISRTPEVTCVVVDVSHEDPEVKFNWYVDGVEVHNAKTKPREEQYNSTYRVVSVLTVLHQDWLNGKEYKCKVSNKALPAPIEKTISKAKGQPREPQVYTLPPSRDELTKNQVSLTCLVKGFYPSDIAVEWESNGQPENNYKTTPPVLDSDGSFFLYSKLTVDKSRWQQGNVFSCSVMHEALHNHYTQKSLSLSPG
light: B5 light with M4L, R31S, A50G, T91K, V92N, S93P, I96P
notes: also called ADI 29371-IgG1
B7: ADI-26624 in IgG4 format produced in CHO cells (antibody)
heavy: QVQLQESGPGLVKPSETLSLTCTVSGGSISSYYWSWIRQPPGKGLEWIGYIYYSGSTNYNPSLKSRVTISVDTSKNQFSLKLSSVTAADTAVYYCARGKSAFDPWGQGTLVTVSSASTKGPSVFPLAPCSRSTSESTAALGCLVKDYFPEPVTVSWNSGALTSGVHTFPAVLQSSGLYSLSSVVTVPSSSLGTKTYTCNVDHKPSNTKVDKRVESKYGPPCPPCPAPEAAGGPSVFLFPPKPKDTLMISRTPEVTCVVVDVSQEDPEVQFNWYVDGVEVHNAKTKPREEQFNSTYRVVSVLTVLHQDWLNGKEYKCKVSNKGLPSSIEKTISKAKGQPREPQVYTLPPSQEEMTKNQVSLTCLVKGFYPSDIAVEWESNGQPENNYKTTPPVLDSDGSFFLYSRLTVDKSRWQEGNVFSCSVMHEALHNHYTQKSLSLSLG
light: B1 light
notes: also called ADI26624-IgG4
B8: ADI-29336 in IgG4 format produced in CHO cells (antibody)
heavy: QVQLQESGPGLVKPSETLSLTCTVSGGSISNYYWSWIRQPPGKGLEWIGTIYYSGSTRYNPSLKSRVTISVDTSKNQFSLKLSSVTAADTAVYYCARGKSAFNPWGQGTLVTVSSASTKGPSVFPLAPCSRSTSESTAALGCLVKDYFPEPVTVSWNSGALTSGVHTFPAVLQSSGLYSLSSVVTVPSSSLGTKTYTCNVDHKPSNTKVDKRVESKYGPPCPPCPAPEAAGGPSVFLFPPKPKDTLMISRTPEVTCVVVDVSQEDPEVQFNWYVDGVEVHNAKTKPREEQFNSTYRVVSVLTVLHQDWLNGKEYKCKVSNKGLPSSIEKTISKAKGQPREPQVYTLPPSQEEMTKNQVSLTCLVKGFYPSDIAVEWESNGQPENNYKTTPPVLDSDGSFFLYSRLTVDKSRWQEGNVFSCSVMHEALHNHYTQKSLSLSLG
light: B1 light
notes: also called ADI29336-IgG4
B9: ADI-29341 in IgG4 format produced in CHO cells (antibody)
heavy: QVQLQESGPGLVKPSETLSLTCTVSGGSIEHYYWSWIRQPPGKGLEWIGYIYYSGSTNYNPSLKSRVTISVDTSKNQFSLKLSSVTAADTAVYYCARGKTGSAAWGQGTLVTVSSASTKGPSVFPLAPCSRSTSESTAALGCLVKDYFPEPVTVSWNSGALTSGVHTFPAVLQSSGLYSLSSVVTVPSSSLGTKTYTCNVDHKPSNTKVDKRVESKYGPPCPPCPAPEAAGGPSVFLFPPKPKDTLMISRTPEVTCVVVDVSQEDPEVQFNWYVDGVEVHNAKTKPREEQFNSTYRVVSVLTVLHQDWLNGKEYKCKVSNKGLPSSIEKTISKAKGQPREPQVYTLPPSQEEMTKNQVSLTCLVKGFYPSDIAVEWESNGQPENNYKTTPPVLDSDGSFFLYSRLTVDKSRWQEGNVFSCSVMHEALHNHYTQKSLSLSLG
light: B5 light
notes: also called ADI29341-IgG4
B10: ADI-30793 in IgG1 format produced in yeast cells (antibody, V domains shown)
VH: B3 VH with G30D, N31S, S35T, A50V, A100H, I101L
VL: B3 VL
notes: also called ADI 30793-IgG1
B11: ADI-29371 in IgG4 format produced in CHO cells (antibody)
heavy: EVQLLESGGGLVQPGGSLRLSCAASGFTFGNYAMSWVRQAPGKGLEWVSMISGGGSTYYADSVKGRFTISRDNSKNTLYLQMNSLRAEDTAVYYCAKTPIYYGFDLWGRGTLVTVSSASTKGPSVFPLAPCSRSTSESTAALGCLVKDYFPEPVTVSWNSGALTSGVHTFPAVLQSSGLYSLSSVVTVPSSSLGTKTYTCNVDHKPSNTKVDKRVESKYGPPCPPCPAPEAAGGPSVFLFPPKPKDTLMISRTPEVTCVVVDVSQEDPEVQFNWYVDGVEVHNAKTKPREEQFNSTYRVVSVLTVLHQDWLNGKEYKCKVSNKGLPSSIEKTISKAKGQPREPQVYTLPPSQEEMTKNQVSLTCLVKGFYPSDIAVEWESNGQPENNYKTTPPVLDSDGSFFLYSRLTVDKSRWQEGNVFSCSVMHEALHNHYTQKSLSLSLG
light: B5 light with M4L, R31S, A50G, T91K, V92N, S93P, I96P
notes: also called ADI 29371-IgG4
B12: ADI-26624 in Fab format (Fab, V domains shown)
VH: QVQLQESGPGLVKPSETLSLTCTVSGGSISSYYWSWIRQPPGKGLEWIGYIYYSGSTNYNPSLKSRVTISVDTSKNQFSLKLSSVTAADTAVYYCARGKSAFDPWGQGTLVTVSS
VL: DIQMTQSPSSVSASVGDRVTITCRASQGISRWLAWYQQKPGKAPKLLIYAASSLQSGVPSRFSGSGSGTDFTLTISSLQPEDFATYYCQQADLHPPLTFGGGTKVEIKR
B13: ADI-29336 in Fab format (Fab, V domains shown)
VH: B12 VH with S31N, Y50T, N58R, D103N
VL: B12 VL
B14: ADI-29341 in Fab format (Fab, V domains shown)
VH: B12 VH with S30E, S31H, S100T, A101G, F102S, D103A, P104A
VL: B3 VL with L4M, S31R, G50A, K91T, N92V, P93S, P96I, F97T
B15: ADI-30793 in Fab format (Fab, V domains shown)
VH: B3 VH with G30D, N31S, S35T, A50V, A100H, I101L
VL: B3 VL
B16: ADI-29371 in Fab format (Fab, V domains shown)
VH: EVQLLESGGGLVQPGGSLRLSCAASGFTFGNYAMSWVRQAPGKGLEWVSMISGGGSTYYADSVKGRFTISRDNSKNTLYLQMNSLRAEDTAVYYCAKTPIYYGFDLWGRGTLVTVSS
VL: B3 VL with F97T
B17: ADI-30794 in Fab format (Fab, V domains shown)
VH: B3 VH
VL: B3 VL

Molecular target: T1, mouse CD47-Fc
Test: bio-light interferometry (ForteBio), IgG1 on AHQ tip, mouse CD47-Fc in solution, bivalent

B1: no binding (tested: 100 nM).
B2: no binding (tested: 100 nM).
B3: no binding (tested: 100 nM).
B4: no binding (tested: 100 nM).
B5: no binding (tested: 100 nM).
B6: no binding (tested: 100 nM).

Molecular target: T2, human CD47 overexpressed on CHO cells (human, UniProt Q08722 19-292)
T2 construct: CHO cells transfected with pCHO1.0 bearing a human CD47 cDNA (Sino Biological); also called hCD47; CHO-hCD47 cells
Test: flow cytometry competition on CHO-hCD47 cells against 200 nM mouse Fc-labelled SIRPα
Experimental: Then the cells were washed 3 times and subsequently incubated with a secondary antibody, goat-anti-mouse IgG-APC (Allophycocyanin) (Biolegend), in PBS with 0.1% BSA on ice for 30 min (in dark). Cells were washed 3 times. Flow cytometry assay was performed on Accuri C6 System (BD Biosciences) and MFI was calculated with C6 software.

In order of rising IC50:
1. B9  0.604 nM
2. B7  1.04 nM
3. B8  1.39 nM
4. B5  2.48 nM
5. B2  8.55 nM
6. B1  11.2 nM

Molecular target: T2, human CD47 overexpressed on CHO cells
Test: flow cytometry on CHO-hCD47 cells, PE anti-human IgG
Experimental: Then the cells were washed at least two times and incubated with a secondary antibody (PE-labelled goat anti-human IgG antibody, Southern Biotech, final concentration of 5 μg/ml) in PBS with 0.1% BSA on ice for 30 min (in dark). The cells were washed at least two times and analyzed by flow cytometry. Flow cytometry was performed on Accuri C6 System (BD Biosciences) and a concentration-dependent graph was fitted with GraphPad, according to MFI of the cells.

In order of falling EC50:
1. B2  6.72 nM
2. B4  3.77 nM
3. B3  3.7 nM
4. B5  3.34 nM
5. B10  2.92 nM
6. B8  2.48 nM
7. B11  2.31 nM
8. B1  2.25 nM
9. B6  2.13 nM
10. B9  1.89 nM

Molecular target: T3, Human CD47-Fc (human, UniProt Q08722 19-139, limits assumed)
T3 construct: the whole entry is named here; also called human CD47 (hCD47); CD47 antigen; not shown: Fc part
Test: bio-light interferometry (ForteBio), human CD47-Fc on AHQ tip, Fab 100 nM in solution, monovalent

In order of rising Kd:
1. B13  1.32 nM
2. B17  3.13 nM
3. B14  4.62 nM
4. B15  9.34 nM
5. B12  65.8 nM
6. B16  218 nM

Molecular target: T4, cynomolgus CD47-Fc (cynomolgus, UniProt A0A2K5X523 19-139)
T4 construct: not shown: Fc part
Test: bio-light interferometry (ForteBio), IgG1 on AHQ tip, cynomolgus CD47-Fc 100 nM in solution, bivalent

In order of rising Kd:
1. B2  0.544 nM
2. B10  0.584 nM
3. B6  1.41 nM
4. B4  3.39 nM

Molecular target: T3, Human CD47-Fc
Test: bio-light interferometry (ForteBio), IgG1 on AHQ tip, human CD47-Fc 100 nM in solution, bivalent
Experimental: (§1) In brief, Sensors were equilibrated off-line in assay buffer for 30 min and then tested on-line for 60 sec to establish the base line. The purified antibody obtained as described above was loaded on-line onto AHQ sensor (ForteBio) to perform ForteBio affinity measurement. Then, the sensor loaded with the antibody was exposed to 100 nM of CD47 antigen for 5 min, followed by transferring the sensor into the assay buffer for 5 min to measure the dissociation rate. A kinetics analysis was performed using the 1:1 binding model.

In order of rising Kd:
1. B2  0.477 nM
2. B5  0.501 nM
3. B3  0.562 nM
4. B10  0.632 nM
5. B1  1.05 nM
6. B6  1.95 nM
7. B4  5.38 nM

Molecular target: T1, mouse CD47-Fc
Test: bio-light interferometry (ForteBio), IgG1 on AHQ tip, mouse CD47-Fc 100 nM in solution, bivalent
Experimental: as §1

B10 gave a Kd of 4.57 nM.
